These results are taken from article PMC1182330.

The subject of series [1] is RNase M5 WT;ribosomal protein L18 (Bacillus subtilis;Bacillus subtilis).
The subject of series [2] is RNase M5 WT (Bacillus subtilis).

Turning to 5S rRNA precursor (pre-5S), the binding signal (fold higher affinity than without L18) in series [1] is 10. For the same substance, the K half in series [2] stood at 2000 nM.
